The record followed here is patent US10428327B2, “Compositions and methods for enhancing homologous recombination” (LIFE TECHNOLOGIES CORPORATION, priority 2016, dated 2019).

Oligonucleotides are written 5' to 3', each unit as a sugar letter and its base; * is a phosphorothioate linkage, no mark a phosphodiester; rarer units and linkages stand in square brackets, end groups in braces. Plain capitals give the bases only. d = 2'-deoxy (DNA); {P} = phosphate

Holding throughout (type): cell-based
The subject of data set [1] is HEK293 cells stably expressing eBFP. The data set is described as follows: HDR assay, conversion of eBFP to GFP by flow cytometry. Conditions: oligonucleotide length and modification, sequential delivery, 1 nt substitution, 48 hours. From the text:
To generate a HEK293FT stable cell line expressing eBFP, an eBFP ORF was synthesized by GENEART® custom DNA synthesis (Thermo Fisher Scientific) and then cloned into pDONAR221 vector. Using GATEWAY® recombination technology (Thermo Fisher Scientific), the eBFP ORF was transferred to pLenti6.2-DEST Gateway Vector and then verified by sequencing. Lentivirus was generated using VIRAPOWER® kit as described in the manual. To generate stable cell line, HEK293FT cells were transduced with 0.1 MOI of Lentivirus expressing eBFP. Three days post transduction cells were selected on 5 μg/mL Blasticidine antibiotics for 2 weeks. Cells expressing eBFP were then collected and diluted to […] in complete medium and plated into 96 well plates for single cell clone. After 2 weeks clones were isolated and verified for eBFP expression by flow cytometer. In a reporter assay using a stable eBFP-expressing HEK293 cell line, the substitution of C to T in eBFP gene converts His67 to Tyr67, generating a GFP variant (Table 5).
(§1) To create homologous recombination (HR) assays, a series of gRNAs flanking the insertion site within the EmGFP gene were designed and synthesized (Table 4). Each individual gRNA was combined with GENEART™ […]™ Cas9 Nuclease to form the Cas9 protein/gRNA ribonucleoprotein complexes (Cas9 RNPs). The Cas9 RNPs were then used to transfect cells via NEON® electroporation. The genomic cleavage efficiency was then evaluated using the GENEART® Genomic Cleavage Detection kit at 48 hours post transfection. The gRNAs with highest editing efficiencies and also in close proximity to the insertion site were selected for the subsequent HR assays. For donor design of a single-stranded oligonucleotide, typically the mutation site was positioned at the center flanked by 30 to 50 nucleotides on each side. For asymmetric donor design, 30 nucleotides were placed on either the left or right arm and then 50 or 67 nucleotides on the right or left arm respectively, in both PAM and non-PAM strands. For design of a dsDNA oligonucleotide with single-stranded overhangs, the insertion element was overlapped in the center flanked by various lengths of ssDNA oligonucleotide on each side. By annealing two single-stranded oligonucleotides at 95° C. for 3 minutes, dsDNA donor molecules with either a 5′ protrusion or a 3′ protrusion were generated. To measure homologous recombination efficiency, the donor DNA was either co-transfected with Cas9 RNPs or delivered sequentially into cells via electroporation. At 48 hours post transfection, the gain of EmGFP function in reporter cell lines was determined by flow cytometric analysis with an Attune® NxT Acoustic Focusing Cytometer (Thermo Fisher Scientific). Alternatively, the genomic loci were PCR-amplified using the corresponding primers and then subjected to GENEART® Genomic Cleavage Detection assay or restriction digestion. The resulting PCR products were also subjected to TOPO cloning. Typically, 96 colonies were randomly picked for sequencing. The sequencing data were analyzed using VECTOR NTI ADVANCE® 11.5 software (Thermo Fisher Scientific).
For each homologous recombination assay, 1.5 μg of Cas9 protein and 360 ng of gRNA were added to Resuspension Buffer R to a final volume of 7 μl, but limiting the total volume of Cas9 protein plus gRNA to less than 1 μl. The gRNA could be diluted in Buffer R if the concentration was too high. Upon mixing, the sample was incubated at room temperature for 5 to 10 minutes to form Cas9 RNPs. Meanwhile, […]™ HEK293 cells expressing either eBFP or disrupted EmGFP were detached from culture flask with TRYPLE™ Express Enzyme and then counted. Aliquots of 1×10^6 cells were washed once with DPBS without Ca^2+ and Mg^2+ and the cell pellets were resuspended in 50 μl of Resuspension Buffer R. A 5 μl aliquot of cell suspension was mixed with 7 μl of Cas9 RNPs. […] The electroporated cells were transferred to 300 μl of […]. […]
A general note: In flow cytometry, cells or beads pass a laser one at a time.

Data set [2] has as its system eBFP locus in HEK293 cells expressing eBFP. The data set is described as follows: EcoRI restriction digestion of PCR-amplified eBFP locus (FLAG tag/EcoRI insertion). As to conditions: FIG. 11B, length of 3′ overhang, 48 hours.
From the text: FIG. 11. Insertion of a FLAG tag along with an EcoRI site using dsDNA donor with single-stranded overhangs. (A) Various donor DNA molecules containing a 30-base FLAG tag along with an EcoRI site were designed and synthesized, including single-stranded DNA donor (ssDNA), blunt-end dsDNA donor (blunt), dsDNA donor with 5′ overhang (5′), dsDNA donor with 3′ overhang (3′). The length of overhangs varied from 6 nucleotides (6), 15 nucleotides (15) to 30 nucleotides (30). The 3′ and 5′ ends of the oligonucleotides harbored two consecutive phosphorothioate-modified bases (Table 4). The short dsDNA donors with and without overhangs were prepared by annealing two short DNA oligonucleotides. […] At 48 hours post transfection, the eBFP locus was PCR-amplified. The resulting PCR fragments were analyzed by the genomic cleavage and detection assays to determine the percentage of Indel or subjected to restriction digestion with EcoRI to determine the percentage of digestion. (B) Length of 3′ overhang. […] Alternatively, a dsDNA donor with 30-base 3′ overhang but without phosphorothioate modification (30-3′n) was used. The percentage of digestion with EcoRI was determined at 48 hours post transfection. (C) Dose effect. […] The eBFP loci were PCR-amplified. The resulting PCR fragments were analyzed by EcoRI digest. (D) Sequencing verification. The PCR fragments were cloned into E. coli and 192 clones were randomly picked for sequencing. The relative percentage of wild type (wt), NHEJ, and HDR clones derived from either ssDNA donor (ssDNA) or dsDNA with 3′ overhangs (3′ overhang) was plotted. The white rectangles represented the population of clones that contained the insert but with a point mutation. Examples of edited clones were shown in (E) (not representing the actual percentages of NHEJ and HDR). The underlined sequences represented the FLAG tag along with an RI site. FIG. 11 discloses SEQ ID NOs: 15-24, respectively, from top to bottom.
as §1, with “The sequencing data were analyzed using VECTOR NTI ADVANCE® 11.5 software (Thermo Fisher Scientific).” left out

Data set [3] deals with EmGFP gene in GRIPTITE HEK293 cells. The data set is described as follows: Sequencing analysis of FLAG tag/EcoRI insertion with +5 gRNA. Conditions: sequential delivery, 48 hours. The protocol: In order to understand the polarity of dsDNA donor with single stranded overhangs, we inserted a FLAG epitope tag along with an EcoRI site into a separate locus where the +5 gRNA was targeting the bottom strand of EmGFP gene (see Table 21). The Cas9 RNPs were first delivered into […]™ HEK293 cells, followed by the delivery of ssDNA donor, or short dsDNA donors with 32-base single stranded overhangs at either 5′ or 3′ end. Samples in the absence of gRNA served as controls. At 48 hours post transfection, the genomic loci were amplified by PCR. The resulting PCR fragments were subjected to restriction digestion with EcoRI (data not shown) or subjected to sequencing analysis. The integration efficiency of FLAG epitope tag along with an EcoRI was approximately 34% using dsDNA donor with 3′ overhangs and 20% using ssDNA donor.

As for “50: unmodified 50-mer ssDNA, BFP point mutation, SEQ ID 54 (DNA CCCACCCTCGTGACCACCCTGACCTACGGCGTGCAGTGCTTCAGCCGCTA; DNA, backbone not given here) [compound 50]”, the “Avg (% GFP+ cells)” value in data set [1] turned out to be 14.4%.

B1: 45-3′: dsDNA donor with 45-base 3′ overhangs, annealed SEQ ID 95 and 96 (nucleic acid)
chain 1: GACTACAAAGACGATGACGACAAGAATTCTTACGGCGTGCAGTGCTTCAGCCGCTACCCCGACCACATGAAGCAGCAC
chain 2: AAGAATTCTTGTCGTCATCGTCTTTGTAGTCGGTCAGGGTGGTCACGAGGGTGGGCCAGGGCACGGGCAGCTTGCCGG
modifications: chemistry not fully specified
With B1, the “Avg (% digestion)” value in data set [2] is 37.0%.

B2: 36-3′: dsDNA donor with 36-base 3′ overhangs, annealed SEQ ID 93 and 94 (nucleic acid)
chain 1: dA*dA*dGdAdAdTdTdCdTdTdGdTdCdGdTdCdAdTdCdGdTdCdTdTdTdGdTdAdGdTdCdGdGdTdCdAdGdGdGdTdGdGdTdCdAdCdGdAdGdGdGdTdGdGdGdCdCdAdGdGdGdCdAdCdG*dG*dG
chain 2: dG*dA*dCdTdAdCdAdAdAdGdAdCdGdAdTdGdAdCdGdAdCdAdAdGdAdAdTdTdCdTdTdAdCdGdGdCdGdTdGdCdAdGdTdGdCdTdTdCdAdGdCdCdGdCdTdAdCdCdCdCdGdAdCdC*dA*dC
modifications: further chemistry not fully specified
Take B2: the “Avg (% digestion)” value in data set [2] is 41.7%.

B3: 70: unmodified 70-mer ssDNA, BFP point mutation, SEQ ID 50 (nucleic acid)
DNA: CCCGTGCCCTGGCCCACCCTCGTGACCACCCTGACCTACGGCGTGCAGTGCTTCAGCCGCTACCCCGACC
modifications: DNA, backbone not given here
Turning to B3, the “Avg (% GFP+ cells)” value in data set [1] was 34.7%.

B4: 80: unmodified 80-mer ssDNA, BFP point mutation, SEQ ID 48 (nucleic acid)
DNA: GCTGCCCGTGCCCTGGCCCACCCTCGTGACCACCCTGACCTACGGCGTGCAGTGCTTCAGCCGCTACCCCGACCACATGA
modifications: DNA, backbone not given here
As for B4, the “Avg (% GFP+ cells)” value in data set [1] was 38.4%.

B5: 32-3′: short dsDNA donor with 32-base 3′ overhangs, EmGFP, SEQ ID 100 and 101 (nucleic acid)
chain 1: AGAATTCTTGTCGTCATCGTCTTTGTAGTCAGGTGGTCACGAGGGTGGGCCAGGGCACGGGC
chain 2: GACTACAAAGACGATGACGACAAGAATTCTACGGCGTGCAGTGCTTCGCCCGCTACCCCGAC
modifications: DNA, backbone and methylation of C not given here; further chemistry not fully specified
For the molecule B5, in data set [3], the “Relative % HDR (integration of FLAG epitope tag along with EcoRI)” value turned out to be 34.2%, the “Relative % NHEJ” value is given as 54.6% and the Relative % wt came out at 11.1%. The “Relative % HDR (integration of FLAG epitope tag along with EcoRI)” value in data set [3] (listed as dsDNA donor with 3′ overhangs) was “approximately 34%”.

B6: PS90: phosphorothioate 90-mer ssDNA, BFP point mutation, SEQ ID 47 (nucleic acid)
DNA: GCAAGCTGCCCGTGCCCTGGCCCACCCTCGTGACCACCCTGACCTACGGCGTGCAGTGCTTCAGCCGCTACCCCGACCACATGAAGCAGC
modifications: 5' phosphate, modified ends, chemistry not fully specified
Turning to B6, in data set [1], the “Avg (% GFP+ cells)” value is on record as 38.8%.

B7: 90: unmodified 90-mer ssDNA, BFP point mutation, SEQ ID 46 (nucleic acid)
DNA: B6 DNA
modifications: unmodified DNA
On to B7, for which the “Avg (% GFP+ cells)” value in data set [1] is listed as 32.8%.

B8: PS70: phosphorothioate 70-mer ssDNA, BFP point mutation, SEQ ID 51 (nucleic acid)
DNA: {P}-dC*dC*dCdGdTdGdCdCdCdTdGdGdCdCdCdAdCdCdCdTdCdGdTdGdAdCdCdAdCdCdCdTdGdAdCdCdTdAdCdGdGdCdGdTdGdCdAdGdTdGdCdTdTdCdAdGdCdCdGdCdTdAdCdCdCdCdGdA*dC*dC
B8: the “Avg (% GFP+ cells)” value in data set [1] is reported as 39.2%.

B9: PS100: phosphorothioate 100-mer ssDNA, BFP point mutation, SEQ ID 45 (nucleic acid)
DNA: {P}-dA*dC*dCdGdGdCdAdAdGdCdTdGdCdCdCdGdTdGdCdCdCdTdGdGdCdCdCdAdCdCdCdTdCdTdGdAdCdCdAdCdCdCdTdGdAdCdCdTdAdCdGdGdCdGdTdGdCdAdGdTdGdCdTdTdCdAdGdCdCdGdCdTdAdCdCdCdCdGdAdCdCdAdCdAdTdGdAdAdGdCdAdGdCdAdCdGdA*dC*dT
As for B9, the “Avg (% GFP+ cells)” value in data set [1] stood at 38.4%.
